Measurements published in US20170360949A1 (TIANJIN INSTITUTE OF INDUSTRIAL BIOTECHNOLOGY CHINESE …, published 2017).

Columns and labels:
[1] = target: T1, Z1Z2 (two Ig domains at the N terminus of the titin molecule) (human); assay: complex formation by mixing in urea and dialysis, then co-purification
T1 construct: also called polypeptide A
T1 chain: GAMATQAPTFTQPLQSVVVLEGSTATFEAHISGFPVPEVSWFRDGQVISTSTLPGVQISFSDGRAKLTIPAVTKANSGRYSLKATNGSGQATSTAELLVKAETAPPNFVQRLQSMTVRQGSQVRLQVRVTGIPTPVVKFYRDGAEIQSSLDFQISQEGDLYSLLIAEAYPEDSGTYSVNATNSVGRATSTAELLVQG

[2] = target: T1, Z1Z2 (two Ig domains at the N terminus …); assay: SDS-PAGE and Native-PAGE of the purified complex
ZSST = target: T2, ZSST (human); assay: SDS-PAGE and Native-PAGE of the purified complex
T2 construct: Two ZSST chains stand in the ZSST/TeN complex; End residue 237 from claim 18; also called SST inserted into a loop of the Z1Z2 molecule
T2 chain: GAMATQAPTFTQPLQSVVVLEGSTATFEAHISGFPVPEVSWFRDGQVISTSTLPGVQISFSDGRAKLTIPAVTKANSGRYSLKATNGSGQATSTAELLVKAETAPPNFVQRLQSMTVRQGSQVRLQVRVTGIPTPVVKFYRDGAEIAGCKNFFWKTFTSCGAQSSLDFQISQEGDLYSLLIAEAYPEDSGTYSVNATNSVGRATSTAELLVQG

GLZ = target: T3, GLZ (human); assay: SDS-PAGE and Native-PAGE of the purified complex
T3 construct: Two GLZ chains stand in the GLZ/TeN complex; End residue 260 from claim 16; also called GLP-1(8G) attached to the N terminus of Z1Z2
T3 chain: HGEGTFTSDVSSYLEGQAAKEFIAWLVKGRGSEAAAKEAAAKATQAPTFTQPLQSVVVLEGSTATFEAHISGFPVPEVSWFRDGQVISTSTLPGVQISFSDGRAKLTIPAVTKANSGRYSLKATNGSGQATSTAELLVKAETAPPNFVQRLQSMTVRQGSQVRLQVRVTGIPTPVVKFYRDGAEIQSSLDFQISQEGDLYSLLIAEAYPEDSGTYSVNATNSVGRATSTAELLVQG

B1: GLTe (other)
chain: HAEGTFTSDVSSYLEGQAAKEFIAWLVKGRGGGGGSGGGGSGGGGSAMATSELSSEVSEENSERREAFWAEWKDLTLSTRPEEGSSLHEEDTQRHETYHQQGQSQVLVQRSPWLMMRMGILGRGLQEYQLPYQRVLP
notes: TEV site printed as between positions 25 and 26, in conflict with GLP-1 at 25-55; claim 15 gives 25-161; also called GLP-1 (7-37) attached via (GGGGS)3 to the N terminus of TeN
binding result [1]: binds

B2: SSTe (other)
chain: GAMATSELSSEVSEENSEAGCKNFFWKTFTSCGGRREAFWAEWKDLTLSTRPEEGSSLHEEDTQRHETYHQQGQSQVLVQRSPWLMMRMGILGRGLQEYQLPYQRVLP
notes: claim 17 gives 25-132; also called SST inserted into the Loop (LT1) of a TeN mutant
binding result [2]: binds

B3: TeN (N terminus of Telethonin, Cys mutated to Ser) (other)
chain: GAMATSELSSEVSEENSERREAFWAEWKDLTLSTRPEEGSSLHEEDTQRHETYHQQGQSQVLVQRSPWLMMRMGILGRGLQEYQLPYQRVLP
notes: also called polypeptide B
binding result (ZSST): binds | binding result (GLZ): binds
